Among the data in publication PMC3488000 are stoichiometry N values, retold here.

Common to all, as to test: SEC; Superdex 200 on an AKTA FPLC, 20 mM Tris, 1M NaCl, pH 8.0; column calibrated with globular protein standards; oligomeric state = estimated net mass divided by the calculated monomer mass (16.3 kDa)
Assay [1] has as its target FbFP F37T (Pseudomonas putida KT2440) (UniProt Q88JB0).
Assay [2] concerns the target FbFP F37S (Pseudomonas putida KT2440) (UniProt Q88JB0).
The target in assay [3] is flavin-binding fluorescent protein (FbFP) from Pseudomonas putida (Pseudomonas putida KT2440) (UniProt Q88JB0).

In the case of “FbFP F37T (from UniProt Q88JB0 1-151) (natural protein)”, the stoichiometry N in assay [1] is 1.87. Regarding “FbFP F37S (from UniProt Q88JB0 1-151) (natural protein)”, the stoichiometry N in assay [2] is 1.78. As for “flavin-binding fluorescent protein (FbFP) from Pseudomonas putida (from UniProt Q88JB0 1-151) (natural protein)”, the stoichiometry N in assay [3] is 1.81.
